This note sets out measurements from PMC3440434, “Efficient Antifouling Surface for Quantitative Surface Plasmon Resonance Based Biosensor Analysis”.

Data set [1] has as its target T1, PFV-1 IN (integrase) (PFV-1, UniProt P14350 752-1143). The experiment in a line: SPR imaging; 4 nM IN, monophasic; 5 uM dsDNA spots; ka 3.7e6 M-1s-1, kd 1.8e-3 s-1; text prints 4.9e-9 M but the rates give 4.9e-10; 10 mM MgCl2; 20 mM Hepes pH 8, 10 mM MgCl2, 100 mM NaCl, 25 ul/min; EG4-pretreated gold SPRi surface; temperature not given. The following applies: protein: recombinant; label: none (immobilized on gold via 5' thiol); 5' overhang 5 nt (T5 spacer) on strand 1, other end blunt.

In data set [2] the target is T1, PFV-1 IN (integrase). The experiment in a line: SPR imaging; KD1, fast phase of two-phase fit; 200 nM IN; ka1 2.2e5 M-1s-1, kd1 5.8e-3 s-1; 10 mM MgCl2; 20 mM Hepes pH 8, 10 mM MgCl2, 100 mM NaCl, 25 ul/min; EG4-pretreated gold SPRi surface; temperature not given. The settings on record: protein: recombinant; label: none (immobilized on gold via 5' thiol); 5' overhang 5 nt (T5 spacer) on strand 1, other end blunt.

B1: SH-5T-dsDNA (random 38 bp) (dsDNA)
DNA 1: TTTTTCTAAGCTAGAAGATTACTCCAAGTACATAATCTAAAAT
DNA 2: ATTTTAGATTATGTACTTGGAGTAATCTTCTAGCTTAG
modifications: 5' thiol-C6 on strand 1
The term Kd denotes the concentration at which binding is half-saturated. For the molecule B1, the values for the Kd with PFV-1 IN (integrase) [1] and in the data set with PFV-1 IN (integrase) [2] were 0.49 nM and 26 nM, respectively.
